Measurements as given in paper PMC7885266 (Chemical Science, 2020).
Where “and” joins values, the source holds several entries; their conditions need not be identical. Identical values can stand only once. Blank lines part the entries; values can stand above or below the binder they belong to.

B2: 4TBP-CTPR8 (designed binder)
chain: AEAWYNLGNAYYKQGDYQKAIEYYQKALELDPNNREAGDGEEDPRSAEAWYNLGNAYYKQGDYQKAIEYYQKALELDPRSAEAWYNLGNAYYKQGDYQKAIEYYQKALELDPNNREAGDGEEDPRSAEAWYNLGNAYYKQGDYQKAIEYYQKALELDPRSAEAWYNLGNAYYKQGDYQKAIEYYQKALELDPNNREAGDGEEDPRSAEAWYNLGNAYYKQGDYQKAIEYYQKALELDPRSAEAWYNLGNAYYKQGDYQKAIEYYQKALELDPNNREAGDGEEDPRSAEAWYNLGNAYYKQGDYQKAIEYYQKALELDPRS
B3: Tankyrase-2 Ankyrin Repeat Cluster 4 (residues 488-649) (domain or fragment, human, UniProt Q9H2K2 488-649, looked up)
chain: GNSEADRQLLEAAKAGDVETVKKLCTVQSVNCRDIEGRQSTPLHFAAGYNRVSVVEYLLQHGADVHAKDKGGLVPLHNACSYGHYEVAELLVKHGAVVNVADLWKFTPLHEAAAKGKYEICKLLLQHGADPTKKNRDGNTPLDLVKDGDTDIQDLLRGDAAL
notes: human tankyrase 2, fourth ankyrin-repeat cluster (ARC4), residues 488-649; also called hTNKS2 ARC4; TNKS2 ARC4; source: E. coli, purified (IMAC, SEC; His tag removed with thrombin)
B4: 1TBP-CTPR2 (designed binder)
chain: AEAWYNLGNAYYKQGDYQKAIEYYQKALELDPNNREAGDGEEDPRSAEAWYNLGNAYYKQGDYQKAIEYYQKALELDPRS
B5: 2TBP-CTPR4 (designed binder)
chain: AEAWYNLGNAYYKQGDYQKAIEYYQKALELDPNNREAGDGEEDPRSAEAWYNLGNAYYKQGDYQKAIEYYQKALELDPRSAEAWYNLGNAYYKQGDYQKAIEYYQKALELDPNNREAGDGEEDPRSAEAWYNLGNAYYKQGDYQKAIEYYQKALELDPRS

Assays:
Details in all cases: both partners purified
[1] = biological target: T1, 3TBP-CTPR6; assay: co-sedimentation; co-precipitation assay: 10 μM hTNKS2 ARC1–3 mixed with an equal volume of CTPR protein (fixed or increasing concentrations) in 50 mM Tris-HCl, 150 mM NaCl, 0.5 mM TCEP, pH 7.3; 1 h at room temperature, 20 000g 30 min; supernatant and pellet on SDS-PAGE, band densities give the stoichiometry in the pellet
T1 chain: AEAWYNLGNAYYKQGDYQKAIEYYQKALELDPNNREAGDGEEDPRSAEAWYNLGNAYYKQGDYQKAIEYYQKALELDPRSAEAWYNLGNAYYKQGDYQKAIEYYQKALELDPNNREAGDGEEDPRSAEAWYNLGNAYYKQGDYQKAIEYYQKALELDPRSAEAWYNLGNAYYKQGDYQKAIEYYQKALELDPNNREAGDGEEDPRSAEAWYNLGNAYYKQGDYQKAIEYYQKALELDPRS

[2] = biological target: B3; assay: ITC; TNKS2 ARC4 (500 μM) titrated into the cell holding one nTBP-CTPR2n construct (50, 25, 16.6 or 12.5 μM); 25 °C; 10 mM sodium phosphate, 150 mM NaCl, 0.5 mM TCEP, pH 7.4; OneSite model
[3] = biological target: B5; assay: as above
[4] = biological target: B2; assay: as above
[5] = biological target: B4; assay: as above
[6] = biological target: T1, 3TBP-CTPR6; assay: as above

stoichiometry N [1]: 1
B1: Tankyrase-2 Ankyrin Repeat Clusters 1-3 (residues 2-485) (domain or fragment, human, UniProt Q9H2K2 2-485, looked up)
chain: SGRRCAGGGAACASAAAEAVEPAARELFEACRNGDVERVKRLVTPEKVNSRDTAGRKSTPLHFAAGFGRKDVVEYLLQNGANVQARDDGGLIPLHNACSFGHAEVVNLLLRHGADPNARDNWNYTPLHEAAIKGKIDVCIVLLQHGAEPTIRNTDGRTALDLADPSAKAVLTGEYKKDELLESARSGNEEKMMALLTPLNVNCHASDGRKSTPLHLAAGYNRVKIVQLLLQHGADVHAKDKGDLVPLHNACSYGHYEVTELLVKHGACVNAMDLWQFTPLHEAASKNRVEVCSLLLSYGADPTLLNCHNKSAIDLAPTPQLKERLAYEFKGHSLLQAAREADVTRIKKHLSLEMVNFKHPQTHETALHCAAASPYPKRKQICELLLRKGANINEKTKEFLTPLHVASEKAHNDVVEVVVKHEAKVNALDNLGQTSLHRAAYCGHLQTCRLLLSYGCDPNIISLQGFTALQMGNENVQQLLQEGI
notes: human tankyrase 2, ankyrin-repeat clusters 1-3, residues 2-485; also called hTNKS2 ARC1–3; source: E. coli, purified (IMAC, SEC; His tag removed with thrombin)

Binder: B2
Kd [2]: 13.6 µM and 15.5 µM

Binder: B3
stoichiometry N [3]: 2.18 and 2.05
stoichiometry N [4]: 3.38 and 2.91
stoichiometry N [5]: 1.01 and 0.9
stoichiometry N [6]: 2.77 and 2.72

Binder: B4
Kd [2]: 14.7 µM and 12.8 µM

Binder: B5
Kd [2]: 11.9 µM and 18.6 µM
